According to US20250092140A1 (SHENGHE CHINA BIOPHARMACEUTICAL, published 2025):

T1: human-NKP30-His (human, UniProt O14931 19-138)
T1 construct: Bought protein; also called NKP30 protein; NKP30-his protein; not shown: His tag
T1 sequence (looked up): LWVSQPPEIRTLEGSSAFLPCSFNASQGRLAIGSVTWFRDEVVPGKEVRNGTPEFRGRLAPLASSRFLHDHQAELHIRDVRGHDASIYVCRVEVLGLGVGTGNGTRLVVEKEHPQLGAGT

B1: constructed antibody B23 (bispecific antibody, human IgG4 S228P, kappa)
heavy: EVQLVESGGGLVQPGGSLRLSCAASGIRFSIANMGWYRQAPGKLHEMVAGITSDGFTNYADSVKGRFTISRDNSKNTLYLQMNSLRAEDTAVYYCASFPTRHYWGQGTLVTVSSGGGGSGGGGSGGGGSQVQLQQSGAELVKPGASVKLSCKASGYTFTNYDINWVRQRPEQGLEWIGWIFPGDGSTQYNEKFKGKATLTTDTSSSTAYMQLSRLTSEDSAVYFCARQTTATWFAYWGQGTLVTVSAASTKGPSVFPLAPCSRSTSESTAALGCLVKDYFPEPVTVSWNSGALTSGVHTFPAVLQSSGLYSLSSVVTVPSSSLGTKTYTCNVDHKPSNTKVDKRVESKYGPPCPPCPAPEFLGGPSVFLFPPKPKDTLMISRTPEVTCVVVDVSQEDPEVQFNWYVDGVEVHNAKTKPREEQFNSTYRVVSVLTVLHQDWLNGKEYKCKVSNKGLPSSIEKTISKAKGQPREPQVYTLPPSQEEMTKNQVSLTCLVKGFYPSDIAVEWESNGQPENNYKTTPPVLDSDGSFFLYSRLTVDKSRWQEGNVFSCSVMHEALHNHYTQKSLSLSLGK
light: DIVMTQSPATLSVTPGDRVSLSCRASQSISDYLHWYQQKSHESPRLLIKYASQSISGIPSRFSGSGSGSDFTLSINSVEPEDVGVYYCQNGHSFPLTFGAGTKLELKRTVAAPSVFIFPPSDEQLKSGTASVVCLLNNFYPREAKVQWKVDNALQSGNSQESVTEQDSKDSTYSLSSTLTLSKADYEKHKVYACEVTHQGLSSPVTKSFNRGEC
notes: IgG4 subtype
B2: constructed antibody A24 (bispecific antibody, human IgG1, kappa)
heavy: not shown
light: B1 light
notes: IgG1 subtype
B3: constructed antibody D28 (bispecific antibody, human IgG4 S228P, kappa)
heavy: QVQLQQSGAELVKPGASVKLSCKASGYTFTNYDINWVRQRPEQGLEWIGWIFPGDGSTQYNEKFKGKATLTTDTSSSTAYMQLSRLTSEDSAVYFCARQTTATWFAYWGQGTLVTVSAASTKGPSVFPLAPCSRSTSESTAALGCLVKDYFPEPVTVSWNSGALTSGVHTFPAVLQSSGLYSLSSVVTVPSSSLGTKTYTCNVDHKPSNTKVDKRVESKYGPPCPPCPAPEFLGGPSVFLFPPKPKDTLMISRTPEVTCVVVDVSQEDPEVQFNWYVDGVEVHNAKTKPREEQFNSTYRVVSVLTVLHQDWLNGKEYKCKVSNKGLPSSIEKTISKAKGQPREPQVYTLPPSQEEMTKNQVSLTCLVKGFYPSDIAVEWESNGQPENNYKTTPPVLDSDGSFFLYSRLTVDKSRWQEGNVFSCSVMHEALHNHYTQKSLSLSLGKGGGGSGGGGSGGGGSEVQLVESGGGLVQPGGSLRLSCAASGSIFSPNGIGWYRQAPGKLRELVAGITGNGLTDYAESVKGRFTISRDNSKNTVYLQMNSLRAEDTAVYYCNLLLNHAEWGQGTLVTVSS
light: B1 light
notes: IgG4 subtype
B4: constructed antibody A25 (bispecific antibody, human IgG1, kappa)
heavy: not shown
light: B1 light
notes: IgG1 subtype

Target: T1, human-NKP30-His
Assay: ELISA, human-NKP30-His coated
Protocol: The human-NKP30-His (purchased from ACRO Biosystems) was diluted to 0.5 μg/mL using pH 7.4 PBS buffer and 100 μL per well was added to a 96-well ELISA plate and coated overnight at 4° C. The plates were closed with 1% BSA blocking solution for 1 hour and washed 3 times with PBST. […] The plate was washed 3 times with PBST and HRP-labelled goat anti-human IgG Fc was diluted 1:20000 with sample diluent, 100 μL for each well was added and incubated for 1 h at room temperature. After washing the plate 4 times with PBST, 100 μL of TMB substrate was added into each well and incubated for 10 min at room temperature, avoiding light. Then 100 μL of 1 M HCl was added into each well to terminate the colour development reaction. The absorbance value of each well in the 96-well plate was measured on a multifunctional enzyme standard at a wavelength of 450 nm and a reference wavelength of 570 nm, absorbance value (OD) per well=OD_{450 nm}−OD_{570 nm}. The concentration of the constructed antibody was logarithmically used as the horizontal coordinate, the measured absorbance value per well as the vertical coordinate, and the Sigmoidal dose-response (Variable Slope) method (Graph Pad Prism Software, Graph Pad Software, San Diego, California) was selected for non-linear regression to obtain the binding curve between the target antibody and NKP30 protein.

Binding result, binds:
B1, B2, B3, B4
